Laboratory results taken from article PMC10690619 (Frontiers in Microbiology, 2023).

Key:
[1] = molecular target: T1, cDPGS (Mf-cDPGS), cyclic 2,3-diphosphoglycerate synthetase (Methanothermus fervidus, UniProt O93732); assay: HPLC-MS detection of product; type: biochemical; details: 50 mM ATP, 250 mM 2,3-DPG, 50 mM MgCl2, 300 mM KCl, 25 mM Tris-HCl pH 8.0, 65 C, 60 min
T1 construct: gene cpgS; full length, 460 residues, N-terminal His6 tag (pLATE51, E. coli BL21(DE3), codon-optimised gene), homodimer ~100 kDa; apo structure solved from selenomethionine protein

[2] = molecular target: the molecule itself; assay: SEC; calibrated Superdex 200 HiLoad 16/60, 20 mM Tris-HCl pH 7.5, 300 mM KCl, 1.0 mL/min, after Ni2+ affinity
[3] = molecular target: the molecule itself; assay: crystal structure; ligand-free (apo) selenomethionine protein, space group I222, one protomer in the asymmetric unit, 1.7 Å, SAD; oligomeric state analysed with PISA

O=C(O)[C@H]1COP(=O)(O)OP(=O)(O)O1 [cDPG]
HPLC-MS detection of product [1]: The direct production of cDPG was monitored by HPLC–MS

B1: cyclic 2,3-diphosphoglycerate synthetase from Methanothermus fervidus, N-terminally His-tagged (enzyme, UniProt O93732 1-460, looked up)
chain: MGETKKMICLVDGEHYFPVVKDSIEILDDLEHIDVVAVVFIGGTEKLQIEDPKEYSEKLGKPVFFGPDPKKIPYDVIKKCVKKYNADIVMDLSDEPVVDYTKRFRIASIVLKEGAVYQGADFKFEPLTEYDVLEKPSIKIIGTGKRIGKTAVSAYAARVIHKHKYNPCVVAMGRGGPREPEIVEGNKIEITAEYLLEQADKGVHAASDHWEDALMSRILTVGCRRCGGGMLGDTFITNVKRGAEIANKLDSDFVIMEGSGAAIPPVKTNRQIVTVGANQPMININNFFGPFRIGLADLVIITMCEEPMATTEKIKKVEKFIKEINPSANVIPTVFRPKPVGNVEGKKVLFATTAPKVVVGKLVNYLESKYGCDVVGVTPHLSNRPLLRRDLKKYINKADLMLTELKAAAVDVATRVAIEAGLDVVYCDNIPVVIDESYGNIDDAIIEVVEMAIDDFKNNR
notes: cyclic 2,3-diphosphoglycerate synthetase (cDPGS), Methanothermus fervidus; E. coli codon-optimised gene in pLATE51; 460 protein residues in the structures, which hold the entire polypeptide chain (N-terminal domain of 127 amino acids, C-terminal domain residues 136-460); No removal of the His tag is told; also called cDPGS; Mf-cDPGS
stoichiometry N [2]: 2

B2: selenomethionine derivative of cyclic 2,3-diphosphoglycerate synthetase from Methanothermus fervidus (enzyme, UniProt O93732 1-460, looked up)
chain: MGETKKMICLVDGEHYFPVVKDSIEILDDLEHIDVVAVVFIGGTEKLQIEDPKEYSEKLGKPVFFGPDPKKIPYDVIKKCVKKYNADIVMDLSDEPVVDYTKRFRIASIVLKEGAVYQGADFKFEPLTEYDVLEKPSIKIIGTGKRIGKTAVSAYAARVIHKHKYNPCVVAMGRGGPREPEIVEGNKIEITAEYLLEQADKGVHAASDHWEDALMSRILTVGCRRCGGGMLGDTFITNVKRGAEIANKLDSDFVIMEGSGAAIPPVKTNRQIVTVGANQPMININNFFGPFRIGLADLVIITMCEEPMATTEKIKKVEKFIKEINPSANVIPTVFRPKPVGNVEGKKVLFATTAPKVVVGKLVNYLESKYGCDVVGVTPHLSNRPLLRRDLKKYINKADLMLTELKAAAVDVATRVAIEAGLDVVYCDNIPVVIDESYGNIDDAIIEVVEMAIDDFKNNR
modifications: selenomethionine in place of methionine
notes: cyclic 2,3-diphosphoglycerate synthetase (cDPGS), Methanothermus fervidus; same construct as m1, made with selenomethionine; 460 protein residues, the entire polypeptide chain seen in the structure; Used for the ligand-free structure (SAD phasing); One protomer in the asymmetric unit; the dimer lies on a crystallographic dyad; also called SeMet cDPGS; apo-cDPGS; source: E. coli, PASM-5052 auto …
binding result [3]: binds
